Results reported in patent publication US20230174627A1 (published 2023).

T1: recombinant EBOV GP (Ebola virus (EBOV), UniProt Q05320 33-650)
T1 sequence: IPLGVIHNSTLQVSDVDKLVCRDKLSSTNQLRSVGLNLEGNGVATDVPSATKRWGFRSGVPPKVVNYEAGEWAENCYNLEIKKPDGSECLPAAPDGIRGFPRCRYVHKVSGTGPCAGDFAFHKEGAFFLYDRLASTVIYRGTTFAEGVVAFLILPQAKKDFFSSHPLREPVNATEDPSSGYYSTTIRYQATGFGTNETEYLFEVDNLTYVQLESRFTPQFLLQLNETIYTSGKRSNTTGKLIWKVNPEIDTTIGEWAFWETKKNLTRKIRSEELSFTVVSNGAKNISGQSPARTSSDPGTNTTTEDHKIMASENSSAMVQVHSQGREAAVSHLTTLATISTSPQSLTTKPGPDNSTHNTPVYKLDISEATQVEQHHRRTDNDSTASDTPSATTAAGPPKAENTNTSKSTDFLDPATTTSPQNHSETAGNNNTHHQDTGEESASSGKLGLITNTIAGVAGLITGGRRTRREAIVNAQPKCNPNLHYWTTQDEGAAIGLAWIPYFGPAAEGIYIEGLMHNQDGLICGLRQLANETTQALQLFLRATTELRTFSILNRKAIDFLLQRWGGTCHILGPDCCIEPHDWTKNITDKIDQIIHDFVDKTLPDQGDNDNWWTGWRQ

B1: X10H2 human IgG1 chimeric mAb (antibody, V domains shown)
VH: QVQLEQSGAEVKKPGTSVKVSCKASGFTFGSDAISWVRQAPGQGLEWMGVIIPVVGARTYAEKFQGRITITADTSTSTVFMDLSSIRSDDTAVYYCAREGARAATGHYKSMDIWGRGTLV
VL: EIELTQSPSSLYASVGDKVTITCRASQGISTYLNWYQQKPGKAPKLLIYAASSLQSGVPSRFSGSGSGTEFTLTISSLQPEDFAAVYCQQYNSYPRTFGQGTKVEIK
B2: 17F6 human IgG1 chimeric mAb (antibody, V domains shown)
VH: DVQLQESGPGLVKPSQTVSLTCTVTGISITAGNYRWSWIRQFPGNKLEWIGYIYYSGTIAYNPSLTSRTAITRDSSKNQFFLEMNSLTAEDTATYYCARDRGWLLLDYWGQGTTLTVSS
VL: DVLMTQTPLSLPVSLGDQASISCRSSQTIVHSNGNTYLEWYLQKPGQSPKLLIYKVSSRFSGVPDRFSGSGSGTDFTLKISRVEAEDLGVYYCFQGSHFPYTFGGGTKLEIKR
B3: X10B1 human IgG1 chimeric mAb (antibody, V domains shown)
VH: EVQLLESGPSLVKPSETLTLTCAVSGASISGDYLNWIRQPPGKGLEWIGGIFGSGGSTDYSPSFKSRVTISTDTSKNQFSLKLTSMTTADTAVYFCATALRGARFDAFDFWGQGRRV
VL: DIELTQSPATLSLSPGERATLSCRASQSVSTYLAWYQKKPGQAPRLLFYGASNRATGIPDRFSGRRSGTDFTLTISSLEPEDVGVYYCQQYNKWNSFGQGTKVEIK
B4: 16F6 human IgG1 chimeric mAb (antibody, V domains shown)
VH: EVQLVESGGGLVTPGGSLKLSCAASGFAFNYYDMFWVRQNTEKRLEWVAYINSGGGNTYYPDTVKGRFTISRDNAKKTLFLQMSSLRSEDTAMYYCARQLYGNSFFDYWGQGTSLTV
VL: DIVMTQSHKFMSTSVGDRVTITCKASQDVTTAVAWYQQKPGHSPKLLIYWASTRHTGVPDRFTGSGSGTDFTLTLNSVQAEDLALYYCQQHYSTPLTFGAGTKLEL
B5: X10F3 human IgG1 chimeric mAb (antibody, V domains shown)
VH: QVQLEQSGAEVKKPGTSVKVSCKASGFFTFGSDAISWVRQAPGQGLEWMGVIIPVVGARTYAEKFQGRITITADTSTSTVFMDLSSLRSDDTAVYYCAREGARAATGHYKSMDIWGRGRTLV
VL: ELQMTQSPSSLSASVGDRVTITCRASQDIGPFLNWYQHKPGKPPKLLIYDVSNLQDGVPSTFSGSGSGTDFTLTISNLQPEDFATYYCLHYANYPRTFGPGTKVEIK
B6: X10B6 human IgG1 chimeric mAb (antibody, V domains shown)
VH: B5 VH
VL: ELLMTQSPSSLSASVGDRVTITCRASQGISTYLSWFQQKPGKPPKLLIYLTSSLEDGVPSRFSGAGSGTEFTLTISNLQPEDFASYYCLQYQSYPRTFGPGTKVEIK

Target: T1, recombinant EBOV GP
Assay: ELISA on plates coated with recombinant EBOV GP

Row | Binder | binding result
1 | B1 | no binding
2 | B2 | no binding
3 | B3 | no binding
4 | B4 | no binding
5 | B5 | no binding
6 | B6 | no binding
